Measured values taken from patent US8357523B2, “Beta-glucosidase variant enzymes and related polynucleotides” (Codexis, Inc., priority 2009, dated 2013).

Test: High throughput cellobiose assay: fold improvement in cellobiase activity of CelA variants over a control enzyme (Tables 2A-2D, 3, 5, 6, 7)
Assay type: biochemical
Settings: 3.3 g/l cellobiose, 50° C. and pH 6.5; compared to native CelA (SEQ ID NO: 4)
Experimental: β-glucosidase activity was also determined using a cellobiose assay, which used cellobiose as substrate. In a total volume of 100 μL, 25 μL clear media supernatant containing CelA enzyme was added to 10 g/L cellobiose (Fluka Cat. No. 22150, Sigma-Aldrich, Inc., St. Louis, Mo.) in 100 mM sodium phosphate buffer (pH 6-7) or sodium acetate buffer (pH 5-5.5). The reaction was incubated at 45-70° C. for an appropriate time (25 minutes to overnight depending on the enzyme concentration) while shaking. Glucose production was determined using an enzymatic glucose assay (K-GLUC, Megazyme, Ireland). 10 μl of each reaction was added to 190 μl GOPOD reagent (supplied as part of the K-GLUC assay kit). The reaction was incubated at 45° C. for 20 minutes and the absorbance of the solution was measured at 510 nm. The GOPOD reagent contains 50 mM Potassium phosphate buffer pH7.4, 0.011M p-hydroxybenzoic acid, 0.008% w/v sodium azide, glucose oxidase (>12,000 U/L), peroxidase (>650 U/L) and 80 mg/L 4-aminoantipyrine. The glucose oxidase enzyme in the reagent reacts with any glucose present in the sample and produces hydrogen peroxide which then reacts with the 4-aminoantipyrine to produce a quinoneimine dye in quantities proportionate with the amount of glucose present and can be measured spectrophotometrically at 510 nm. Detectable β-glucosidase activity was observed under high throughput screening conditions (i.e., pH 7, 50° C.).
Plasmid libraries containing variant CelA genes were transformed into B. megaterium and plated on Luria-Bertani (LB) agar plates containing 3 μg/mL tetracycline with a DM3 regeneration media overlay (400 mM sodium succinate dibasic, pH 7.3, 0.5% casamino acids, 0.5% yeast extract, 0.4% K2HPO4, 0.2% KH2PO4, 20 mM MgCl2, 0.5% glucose and 0.2% BSA). After incubation for at least 18 hours at 30° C., colonies were picked using a Q-bot® robotic colony picker (Genetix USA, Inc., Beaverton, Oreg.) into shallow, 96-well well microtiter plates containing 180 μL, LB and 10 μg/mL tetracycline. Cells were grown overnight at 37° C. with shaking at 200 rpm and 85% humidity. 10 μL of this culture was then transferred into 96-well microtiter plates (deep well) containing 390 μL A5-glucose-xylose medium and 10 μg/mL tetracycline as described in example 2. The plates were then incubated at 37° C. with shaking at 250 rpm and 85% humidity overnight (˜18-24 hours). The deep plates were centrifuged at 4000 rpm for 15 minutes and the clear media supernatant containing the secreted CelA enzyme was used for the high throughput pNPG or cellobiose assay of Example 5.
The CelA libraries were screened in high throughput using the cellobiose assay of Example 5 (Substrate: cellobiose; pH: 5-7; temperature: 45-72° C.; time: 2-24 hrs) for the identification of improved variants.
In shallow, 96-well microtiter plates 25 μL of media supernatant was added to 75 μL of […] cellobiose in 150 mM sodium acetate buffer pH 5-5.5 or 150 mM sodium phosphate buffer pH6-7. After sealing with aluminum/polypropylene laminate heat seal tape (Velocity 11 (Menlo Park, Calif.), Cat#06643-001), the plates were shaken at 45-65° C. for up to 24 hrs. The plates were centrifuged for 5 minutes at 4000 rpm. In shallow well clear microtiter plates, 10 μL of the reaction mixture was added to 190 μL of GOPOD reagent (as in example 5B) per well. The solutions were incubated at 45° C. for 1 hour and absorbance was measured at 510 nm for the identification of active CelA variants.
Improved CelA variants were identified from the high throughput screening of various CelA variant libraries as described in Example 7, using the cellobiose assay of Example 5 using 3.3 g/l cellobiose at temperatures from 50°-55° C. at a pH in the range of 5.3-6.5. Tables 2A, 2B, 2C, and 2D and Table 3 depict the improvement in activities of CelA variants encompassed by the invention. The assay conditions are indicated in each table. […]

Molecule | Fold improvement over wildtype CelA
1 (protein) STAIAQEGAAPAAILHPEKWPRPATQRLIDPAVEKRVDALLKQLSVEEKVGQVIQGDIGTITPEDLRKYPLGSILAGGNSGPNGDDRAPPKEWLDLADAFYRVSLEKRPGHTPIPVLFGIDAVHGHGNIGSATIFPHNIALGATHDPELLRRIGEVTAVEMAATGIDWTFAPALSVVRDDRWGRTYEGFSEDPEIVAAYSAAIVESVQGKFGSKDFMAPGRIVASAKHFLADGGTDQGRDQGDARISEDELIRIHNAGYPPAIDAGVLTVMASFSSWQGIKHHGHKQLLTDVLKGQMGFNGFIVGDWNAHDQVPGCTKFNCPTSLIAGLDMYMAADSWKQLYENTLAQVKDGTIPMARLDDAVRRILRVKVLAGLFEKPAPKDRPGLPGLETLGSPEHRAVGREAVRKSLVLLKNDKGTLPLSPKARVLVAGDGADNIGKQSGGWTISWQGTGNRNDEFPGATSILGGIRDAVADAGGSVEFDVAGQYKTKPDVAIVVFGEEPYAEFQGDVETLEYQPDQKQDLALLKKLKDQGIPVVAVFLSGRPMWVNPELNASDAFVAAWLPGTEGGGVADVLFTDKAGKVQHDFAGKLSYSWPRTAAQTTVNRGDADYNPLFAYGYGLTYKDKSKVGTLPEESGVPAEARQNAGIYFRAGALRLPGRFL | + (+ = 1.1 to 2.0 fold improvement over native CelA (SEQ ID NO: 4))
5 (protein) STAIAQEGAAPAAILHPEKWPRPATQRLIDPAVEKRVDALLKQLSVEEKVGQVIQGDIGTITPEDLRKYPLGSILAGGNSGPNGDDRAPPKEWLDLADAFYRVSLEKRPGHTPIPVLFGIDAVHGHGNIGSATIFPHNIALGATRDPELLRRIGEVTAVEMAATGIDWTFAPALSVVRDDRWGRTYEGFSEDPEIVAAYSAAIVEGVQGKFGSKDFMAPGRIVASAKHFLADGGTDQGRDQGDARISEDELIRIHNAGYPPAIDAGVLTVMASFSSWQGIKHHGHKQLLTDVLKGQMGFNGFIVGDWNAHDQVPGCTKFNCPTSLIAGLDMYMAADSWKQLYENTLAQVKDGTIPMARLDDAVRRILRVKVLAGLFEKPAPKDRPGLPGLETLGSPEHRAVGREAVRKSLVLLKNDKGTLPLSPKARVLVAGDGADNIGKQSGGWTISWQGTGNRNDEFPGATSILGGIRDAVADAGGSVEFDVAGQYKTKPDVAIVVFGEEPYAEFQGDVETLEYQPDQKQDLALLKKLKDQGIPVVAVFLSGRPMWVNPELNASDAFVAAWLPGTEGGGVADVLFTDKAGKVQHDFAGKLSYSWPRTAAQTTVNRGDADYNPLFAYGYGLTYKDKSKVGTLPEESGVPAEARQNAGIYFRAGALRLPGRFL | + (+ = 1.1 to 2.0 fold improvement over native CelA (SEQ ID NO: 4))
6 (protein) STAIAQEGAAPAAILHPEKWPRPATQRLIDPAVEKRVDALLKQLSVEEKVGQVIQGDIGTITPEDLRKYPLGSILAGGNSGPNGDDRAPPKEWLDLADAFYRVSLEKRPGHTPIPVLFGIDAVHGHGNIGSATIFPHNIALGATHDPELLRRIGEVTAVEMSATGIDWTFAPALSVVRDDRWGRTYEGFSEDPEIVAAYSAAIVEGVQGKFGSKDFMAPGRIVASAKHFLADGGTDQGRDQGDARISEDELIRIHNAGYPPAIDAGVLTVMASFSSWQGIKHHGHKQLLTDVLKGQMGFNGFIVGDWNAHDQVPGCTKFNCPTSLIAGLDMYMAADSWKQLYENTLAQVKDGTIPMARLDDAVRRILRVKVLAGLFEKPAPKDRPGLPGLETLGSPEHRAVGREAVRKSLVLLKNDKGTLPLSPKARVLVAGDGADNIGKQSGGWTISWQGTGNRNDEFPGATSILGGIRDAVADAGGSVEFDVAGQYKTKPDVAIVVFGEEPYAEFQGDVETLEYQPDQKQDLALLKKLKDQGIPVVAVFLSGRPMWVNPELNASDAFVAAWLPGTEGGGVADVLFTDKAGKVQHDFAGKLSYSWPRTAAQTTVNRGDADYNPLFAYGYGLTYKDKSKVGTLPEESGVPAEARQNAGIYFRAGALRLPGRFL | + (+ = 1.1 to 2.0 fold improvement over native CelA (SEQ ID NO: 4))
4 (protein) STAIAQEGAAPAAILHPEKWPRPATQRLIDPAVEKRVDALLKQLSVEEKVGQVIQGDIGTITPEDLRKYPLGSILAGGNSGPNGDDRAPPKEWLDLADAFYRVSLEKRPGHTPIPVLFGIDAVHGHGNIGSATIFPHNIALGATHDPELLRRIGEVTAVEMAATGIDWTFAPALSVVRDDRWGRTYEGFSEDPEIVAAYSAAIVEGVQGKFGSKDFMAPGRIVASAKHFLADGGTDQGRDQGDARISEDELIRIHNAGYPPAIDAGVLTVMASFSSWQGIKHHGHKQLLTDVLKGQMGFNGFIVGDWNAHGQVPGCTKFNCPTSLIAGLDMYMAADSWKQLYENTLAQVKDGTIPMARLDDAVRRILRVKVLAGLFEKPAPKDRPGLPGLETLGSPEHRAVGREAVRKSLVLLKNDKGTLPLSPKARVLVAGDGADNIGKQSGGWTISWQGTGNRNDEFPGATSILGGIRDAVADAGGSVEFDVAGQYKTKPDVAIVVFGEEPYAEFQGDVETLEYQPDQKQDLALLKKLKGQGIPVVAVFLSGRPMWVNPELNASDAFVAAWLPGTEGGGVADVLFTDKAGKVQHDFAGKLSYSWPRAAAQTTVNRGDADYNPLFAYGYGLTYKDKSKVGTLPEESGVPAEARQNAGIYFRAGALRLPGRFL | + (+ = 1.1 to 2.0 fold improvement over native CelA (SEQ ID NO: 4))
3 (protein) STAIAQEGAAPAAILHPEKWPRPATQRLIDPAVEKRVDALLKQLSVEEKVGQVIQGDIGTITPEDLRKYPLGSILAGGNSGPNGDDRAPPKEWLDLADAFYRVSLEKRPGHTPIPVLFGIDAVHGHGNIGSATIFPHNIALGATHDPELLRRIGEVTAVEMAATGIDWTFAPALSVVRDDRWGRTYEGFSEDPEIVAAYSAAIVEGVQGKFGSKDFMAPGRIVASAKHFLADGGTDQGRDQGDARISEDELIRIHNAGYPPAIDAGVLTVMASFSSWQGIKHHGHKELLTDVLKGQMGFNGFIVGDWNAHDQVPGCTKFNCPTSLIAGLDMYMAADSWKQLYENTLAQVKDGTIPMARLDDAVRRILRVKVLAGLFEKPAPKDRPGLPGLETLGSPEHRAVGREAVRKSLVLLKNDKGTLPLSPKARVLVAGDGADNIGKQSGGWTISWQGTGNRNDEFPGATSILGGIRDAVADAGGSVEFDVAGQYKTKPDVAIVVFGEEPYAEFQGDVETLEYQPDQKQDLALLKKLKDQGIPVVAVFLSGRPMWVNPELNASDAFVAAWLPGTEGGGVADVLFTDKAGKVQHDFAGKLSYSWPRTAAQTTVNRGDADYNPLFAYGYGLTYKDKSKVGTLPEESGVPAEARQNAGIYFRAGALRLPGRFL | + (+ = 1.1 to 2.0 fold improvement over native CelA (SEQ ID NO: 4))
2 (protein) STAIAQEGAAPAAILHPEKWPRPATQRLIDPAVEKRVDALLKQLSVEEKVGQVIQGDIGTITPEDLRKYPLGSILAGGNSGPNGDDRAPPKEWLDLADAFYRVSLEKRPGHTPIPVLFGIDAVHGHGKIGSATIFPHNIALGATHDPELLRRIGEVTAVEMAATGIDWTFAPALSVVRDDRWGRTYEGFSEDPEIVAAYSAAIVEGVQGKFGSKDFMAPGRIVASAKHFLADGGTDQGRDQGDARISEDELIRIHNAGYPPAIDAGVLTVMASFSSWQGIKHHGHKQLLTDVLKGQMGFNGFIVGDWNAHDQVPGCTKFNCPTSLIAGLDMYMAADSWKQLYENTLAQVKDGTIPMARLDDAVRRILRVKVLAGLFEKPAPKDRPGLPGLETLGSPEHRAVGREAVRKSLVLLKNDKGTLPLSPKARVLVAGDGADNIGKQSGGWTISWQGTGNRNDEFPGATSILGGIRDAVADAGGSVEFDVAGQYKTKPDVAIVVFGEEPYAEFQGDVETLEYQPDQKQDLALLKKLKDQGIPVVAVFLSGRPMWVNPELNASDAFVAAWLPGTEGGGVADVLFTDKAGKVQHDFAGKLSYSWPRTAAQTTVNRGDADYNPLFAYGYGLTYKDKSKVGTLPEESGVPAEARQNAGIYFRAGALRLPGRFL | + (+ = 1.1 to 2.0 fold improvement over native CelA (SEQ ID NO: 4))
